For data set [1], the target named is T1, Arabidopsis thaliana cystinosin (plant cystinosin) (Arabidopsis thaliana, UniProt P57758, S228A).
T1 construct: gene At5g40670; codon-optimised gene expressed in Saccharomyces cerevisiae BJ5460 as cleavable C-terminal GFP-His fusion; tag cut with TEV protease; DDM-purified; reconstituted in POPE:POPG liposomes for transport
T1 sequence (P57758 1-270 S228A): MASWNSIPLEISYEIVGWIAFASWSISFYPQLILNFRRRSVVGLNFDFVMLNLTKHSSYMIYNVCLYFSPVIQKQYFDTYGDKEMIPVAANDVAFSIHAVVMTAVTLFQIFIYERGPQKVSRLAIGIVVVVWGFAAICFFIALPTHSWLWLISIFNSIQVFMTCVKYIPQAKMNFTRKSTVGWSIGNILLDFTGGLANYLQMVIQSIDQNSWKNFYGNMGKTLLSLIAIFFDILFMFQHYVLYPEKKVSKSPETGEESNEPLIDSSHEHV
As to the kind of experiment: nanoDSF tryptophan fluorescence quench, DDM-purified protein. In kind it is binding. To be noted: 3.2 mM L-cystine, 10 μM protein, pH 7.2, 25 °C. For orientation: In DSF a fluorescence change marks the thermal transition of the protein.

The target in data set [2] is T2, Arabidopsis thaliana cystinosin (plant cystinosin) (Arabidopsis thaliana, UniProt P57758, W24F).
T2 construct: gene At5g40670; codon-optimised gene expressed in Saccharomyces cerevisiae BJ5460 as cleavable C-terminal GFP-His fusion; tag cut with TEV protease; DDM-purified; reconstituted in POPE:POPG liposomes for transport
T2 sequence (P57758 1-270 W24F): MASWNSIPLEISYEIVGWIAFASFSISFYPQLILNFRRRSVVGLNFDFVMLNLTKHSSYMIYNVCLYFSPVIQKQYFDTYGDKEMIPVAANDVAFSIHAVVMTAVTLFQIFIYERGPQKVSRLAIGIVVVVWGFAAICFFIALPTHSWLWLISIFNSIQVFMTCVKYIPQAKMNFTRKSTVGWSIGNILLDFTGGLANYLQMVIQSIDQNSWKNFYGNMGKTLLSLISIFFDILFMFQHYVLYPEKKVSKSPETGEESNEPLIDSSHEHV
Described as above. In kind it is binding. To be noted: 3.2 mM L-cystine, 10 μM protein, pH 7.2, 25 °C.

Data set [3] deals with T3, Arabidopsis thaliana cystinosin (plant cystinosin) (Arabidopsis thaliana, UniProt P57758, P169G).
T3 construct: gene At5g40670; codon-optimised gene expressed in Saccharomyces cerevisiae BJ5460 as cleavable C-terminal GFP-His fusion; tag cut with TEV protease; DDM-purified; reconstituted in POPE:POPG liposomes for transport
T3 sequence (P57758 1-270 P169G): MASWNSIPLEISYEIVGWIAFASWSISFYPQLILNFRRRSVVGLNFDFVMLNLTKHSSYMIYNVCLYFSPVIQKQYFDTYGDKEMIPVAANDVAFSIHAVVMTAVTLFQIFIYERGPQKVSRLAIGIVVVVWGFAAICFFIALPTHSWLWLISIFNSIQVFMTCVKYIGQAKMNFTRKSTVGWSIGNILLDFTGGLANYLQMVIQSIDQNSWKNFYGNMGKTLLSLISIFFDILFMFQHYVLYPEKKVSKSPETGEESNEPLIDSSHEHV
Described as above. In kind it is binding. To be noted: 3.2 mM L-cystine, 10 μM protein, pH 7.2, 25 °C.

Data set [4] has as its target T4, Arabidopsis thaliana cystinosin (plant cystinosin) (Arabidopsis thaliana, UniProt P57758).
T4 construct: gene At5g40670; codon-optimised gene expressed in Saccharomyces cerevisiae BJ5460 as cleavable C-terminal GFP-His fusion; tag cut with TEV protease; DDM-purified; reconstituted in POPE:POPG liposomes for transport
T4 sequence (P57758 1-270): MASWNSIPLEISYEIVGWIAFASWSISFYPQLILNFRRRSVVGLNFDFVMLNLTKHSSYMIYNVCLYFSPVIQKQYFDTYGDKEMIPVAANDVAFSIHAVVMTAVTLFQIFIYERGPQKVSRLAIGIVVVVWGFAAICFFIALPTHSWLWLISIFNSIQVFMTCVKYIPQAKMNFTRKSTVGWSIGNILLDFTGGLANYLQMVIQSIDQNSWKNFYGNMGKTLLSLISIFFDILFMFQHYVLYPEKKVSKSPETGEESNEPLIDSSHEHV
As to the kind of experiment: X-ray crystal structure, […] Å. To be noted: complex with sybody Syb39; lipidic cubic phase; central binding site, inward-open state.

The target of data set [5] is T4, Arabidopsis thaliana cystinosin (plant cystinosin). Nature of the data set: pyranine proton-flux transport assay in proteoliposomes. In kind it is biochemical. To be noted: 500 μM substrate, pH 7.2, 25 °C, valinomycin / K+ gradient.
For data set [6], the system named is T5, N[C@@H](CSSC[C@H](N)C(=O)O)C(=O)O.
T5 construct: no GFP; plasma membrane of Xenopus laevis oocytes
As to the kind of experiment: two-electrode voltage clamp in Xenopus laevis oocytes. The data set is classed as cell-based, Homo sapiens. To be noted: pH 5, -40 mV, ND-96, proton-coupled transport. A general note: In two-electrode clamp one electrode senses voltage and the other passes current.

Substrate in data set [7]: N[C@@H](CSSC[C@H](N)C(=O)O)C(=O)O
As to the kind of experiment: pyranine proton-flux transport assay in proteoliposomes. In kind it is biochemical, Arabidopsis thaliana. To be noted: pH 7.2 both sides, 25 °C, valinomycin / K+ gradient.

Substrate in data set [8]: N[C@@H](CSSC[C@H](N)C(=O)O)C(=O)O
As to the kind of experiment: two-electrode voltage clamp in Xenopus laevis oocytes. The data set is classed as cell-based, Homo sapiens. To be noted: pH 5, -40 mV, ND-96, proton-coupled transport.

For data set [9], the target named is T6, Arabidopsis thaliana cystinosin (Arabidopsis thaliana, UniProt P57758 1-270).
T6 chain: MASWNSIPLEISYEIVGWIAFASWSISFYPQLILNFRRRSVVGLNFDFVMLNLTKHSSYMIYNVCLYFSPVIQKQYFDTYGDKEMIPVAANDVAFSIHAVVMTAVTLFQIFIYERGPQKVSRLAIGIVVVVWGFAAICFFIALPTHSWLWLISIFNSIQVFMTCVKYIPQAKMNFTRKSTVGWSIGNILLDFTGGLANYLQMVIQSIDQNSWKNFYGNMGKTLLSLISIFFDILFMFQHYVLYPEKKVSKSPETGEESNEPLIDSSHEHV
As to the kind of experiment: BLI. (BLI is a label-free optical method that tracks binding on a fibre tip over time.)

The target of data set [10] is T7, Arabidopsis thaliana cystinosin (Arabidopsis thaliana, UniProt P57758).
T7 construct: cystinosin from Arabidopsis thaliana, Uniprot P57758; codon-optimised synthetic gene in pDDGFP-Leu2d; also called plant cystinosin; the transporter; source: Saccharomyces cerevisiae BJ5460, purified in DDM (Ni-NTA, TEV cleavage, reverse IMAC, Superdex 200)
As to the kind of experiment: crystal structure; apo cystinosin with Nb1 and Nb4, lipidic cubic phase, 2.33 Å, PDB 7ZKZ. To be noted: both partners purified.

Data set [11] deals with T7, Arabidopsis thaliana cystinosin. As to the kind of experiment: crystal structure; apo cystinosin with Syb39 and Nb4, lipidic cubic phase (monoolein), 20 °C, 2.65 Å, PDB 7ZK1. To be noted: both partners purified.

One may read the Km as the substrate concentration at which the rate is half of its maximum. As a reminder, the Kd is the concentration at which binding is half-saturated.

Turning to `N[C@@H](CSSC[C@H](N)C(=O)O)C(=O)O` [L-cystine], the “% loss of binding relative to WT” value in data set [1] and in data set [2] was ~ 50% throughout. In addition, the “nanoDSF tryptophan fluorescence quench, DDM-purified protein” value in [3] was “it still retains WT levels of L-cystine binding”. Further, in [4], the “X-ray crystal structure, 3.37 Å” value is reported as “we determined the structure of the ligand bound state in complex with Syb39”.

For `N[C@@H](CSS(=O)(=O)C[C@H](N)C(=O)O)C(=O)O` [L-cystine-S,S-dioxide], the “transport, % of WT levels at 500 μM” value in data set [5] is on record as ~ 80%. On to “human cystinosin (WT) (Homo sapiens; DEL362-367)”, for which, in [6], the Km is 117 ± 2.4 µM.

B1: Arabidopsis thaliana cystinosin (plant cystinosin) (Arabidopsis thaliana) (protein)
chain: MASWNSIPLEISYEIVGWIAFASWSISFYPQLILNFRRRSVVGLNFDFVMLNLTKHSSYMIYNVCLYFSPVIQKQYFDTYGDKEMIPVAANDVAFSIHAVVMTAVTLFQIFIYERGPQKVSRLAIGIVVVVWGFAAICFFIALPTHSWLWLISIFNSIQVFMTCVKYIPQAKMNFTRKSTVGWSIGNILLDFTGGLANYLQMVIQSIDQNSWKNFYGNMGKTLLSLISIFFDILFMFQHYVLYPEKKVSKSPETGEESNEPLIDSSHEHV
notes: codon-optimised gene expressed in Saccharomyces cerevisiae BJ5460 as cleavable C-terminal GFP-His fusion; tag cut with TEV protease; DDM-purified; reconstituted in POPE:POPG liposomes for transport
Consider B1, for which the Km in data set [7] (proton-coupled symport) worked out at 19 ± 2.9 µM.

B2: Arabidopsis thaliana cystinosin (plant cystinosin) (Arabidopsis thaliana; Y167F) (protein)
chain: MASWNSIPLEISYEIVGWIAFASWSISFYPQLILNFRRRSVVGLNFDFVMLNLTKHSSYMIYNVCLYFSPVIQKQYFDTYGDKEMIPVAANDVAFSIHAVVMTAVTLFQIFIYERGPQKVSRLAIGIVVVVWGFAAICFFIALPTHSWLWLISIFNSIQVFMTCVKFIPQAKMNFTRKSTVGWSIGNILLDFTGGLANYLQMVIQSIDQNSWKNFYGNMGKTLLSLISIFFDILFMFQHYVLYPEKKVSKSPETGEESNEPLIDSSHEHV
notes: as for B1
In the case of B2, the Km in data set [7] was 73.3 ± 12.8 µM.

B3: human cystinosin Δ2-115 variant (ΔN) (Homo sapiens; DEL2-115) (protein)
chain: MLVIRSSAISIINQVIGWIYFVAWSISFYPQVIMNWRRKSVIGLSFDFVALNLTGFVAYSVFNIGLLWVPYIKEQFLLKYPNGVNPVNSNDVFFSLHAVVLTLIIIVQCCLYERGGQRVSWPAIGFLVLAWLFAFVTMIVAAVGVTTWLQFLFCFSYIKLAVTLVKYFPQAYMNFYYKSTEGWSIGNVLLDFTGGSFSLLQMFLQSYNNDQWTLIFGDPTKFGLGVFSIVFDVVFFIQHFCLYRKRP
notes: no GFP; Xenopus laevis oocytes
As for B3, in data set [8], the Km is 117 ± 28.9 µM.

B4: Nb4 (VHH)
VHH: QVQLVESGGGLVQAGGSLRLSCAASGRTITPISTYVMGWFRQDPGKEREFVASISWNGANTYYADSVKGRFTISRDNAKNTVYLQMNSLKPEDTAVYYCAADPESHVRLRLGVGAYWGRGTQVTVSS
notes: llama nanobody; also called llama derived nanobody (Nb4)
On to B4, for which binding in [9] was characterised by a dissociation constant (Kd) of 90 nM. Moreover, the binding result in data set [10] is recorded as “binds”.

B5: Nb1 (VHH)
VHH: QVQLVESGGGSAQPGGSLRLSCAVSGSVSELNTMGWFRQAPGKQRELVARITATSDATNYADSVKGRFTISRDNGWNTVYLQSNSLKPEDSAVYYCNVEGAPSWFSGIRSYWGQGTQVTVSS
notes: llama nanobody
Take B5: in data set [9], the Kd is 189 nM. In addition, in data set [10], the binding result is listed as “binds”.

B6: sybody 39 (VHH)
VHH: QVQLVESGGGLVQAGGSLRLSCAASGFPVYRNRMHWYRQAPGKEREWVAAIESAGQETHYADSVKGRFTISRDNAKNTVYLQMNSLKPEDTAVYYCNVKDEGWYWQTYDYWGQGTQVTVSA
notes: synthetic nanobody selected from the loop library; also called Syb39
With B6, the binding result in [11] is given as “binds”. This molecule displayed a Kd in [9] of 760 nM.
